Here are results for one substance from article PMC4735112, “The Functional Unit of Neisseria meningitidis 3-Deoxy-ᴅ-Arabino-Heptulosonate 7-Phosphate Synthase Is Dimeric” (PLoS ONE, 2016).

For assay [1], the target named is Neisseria meningitidis 3-deoxy-D-arabino-heptulosonate 7-phosphate synthase, R126S variant (N. meningitidis) (UniProt Q9K169). Description: AUC; sedimentation velocity, 20°C, 10 mM BTP pH 7.3, 100 mM KCl, 200 μM PEP; 0.2, 0.4 and 1.2 mg/mL; continuous size distribution model (SEDFIT).
For assay [2] the target is unchanged. In words: SAXS; SEC-coupled small angle X-ray scattering, 25°C, 10 mM BTP pH 7.5, 100 mM KCl, 200 μM PEP; initial 7 mg/mL (wild type) and 12 mg/mL (R126S) prior to SEC; CRYSOL fits to tetramer and tight dimer of the crystal structure.
Assay [3] shares this target. In words: SEC. On the technique in general: In gel filtration, larger molecules generally elute earlier.
For assay [4] the target is unchanged. Description: crystal structure.

Consider “Neisseria meningitidis 3-deoxy-D-arabino-heptulosonate 7-phosphate synthase, R126S variant (from UniProt Q9K169 1-351) (enzyme)”, for which the stoichiometry N (usually the number of molecules, sites or subunits per partner or assembly) worked out at 2 in assay [1], 2 in assay [2], 2 in assay [3] and 4 in assay [4].
